Test results: US20260167741A1

Key:
[1] = biological target: monomeric FcγRIIIa-158F (human) (UniProt P08637); experiment: BLI (Octet), antibody on FAB2G sensor, monomeric FcγR in solution
[2] = biological target: monomeric FcγRIIIa-158V (human) (UniProt P08637); experiment: as above
monomeric FcγRI (human) = monomeric FcγRI (human) (UniProt P12314); experiment: as above
[3] = biological target: monomeric FcγRIIb (human) (UniProt P31994); experiment: BLI (Octet), steady-state, antibody on FAB2G sensor
Chain of monomeric FcγRIIb (human) (P31994 43-217 limits assumed): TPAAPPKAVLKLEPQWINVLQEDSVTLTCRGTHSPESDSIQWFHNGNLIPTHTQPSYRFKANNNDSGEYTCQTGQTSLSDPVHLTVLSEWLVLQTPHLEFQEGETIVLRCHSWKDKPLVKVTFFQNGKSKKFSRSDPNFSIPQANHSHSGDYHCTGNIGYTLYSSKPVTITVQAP

[4] = biological target: monomeric FcγRIIa-131H (human) (UniProt P12318); experiment: as above
Chain of monomeric FcγRIIa-131H (human) (P12318 34-217 limits assumed): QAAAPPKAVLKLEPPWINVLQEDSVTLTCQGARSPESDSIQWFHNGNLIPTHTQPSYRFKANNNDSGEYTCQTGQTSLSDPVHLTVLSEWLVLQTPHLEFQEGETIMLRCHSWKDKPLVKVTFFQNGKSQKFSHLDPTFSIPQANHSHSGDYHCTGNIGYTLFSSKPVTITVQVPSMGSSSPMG

[5] = biological target: monomeric FcγRIIa-131R (human) (UniProt P12318); experiment: as above
Chain of monomeric FcγRIIa-131R (human) (P12318 34-217 H167R limits assumed): as the sequence (P12318 34-217 limits assumed) above, with H134R counted along it

[6] = biological target: tetrameric FcγRI-streptavidin-His labelled with Alexa647 (human) (UniProt P12314); experiment: flow cytometry: SKOV-3 (HER2-expressing) cells treated with 100 nM antibody, then tetrameric FcγRI-Alexa647 (50 or 100 nM by paragraph 186, not said on the sheet)
Chain of tetrameric FcγRI-streptavidin-His labelled with Alexa647 (human) (P12314 other isoform, or with tags, fused parts or gaps limits assumed): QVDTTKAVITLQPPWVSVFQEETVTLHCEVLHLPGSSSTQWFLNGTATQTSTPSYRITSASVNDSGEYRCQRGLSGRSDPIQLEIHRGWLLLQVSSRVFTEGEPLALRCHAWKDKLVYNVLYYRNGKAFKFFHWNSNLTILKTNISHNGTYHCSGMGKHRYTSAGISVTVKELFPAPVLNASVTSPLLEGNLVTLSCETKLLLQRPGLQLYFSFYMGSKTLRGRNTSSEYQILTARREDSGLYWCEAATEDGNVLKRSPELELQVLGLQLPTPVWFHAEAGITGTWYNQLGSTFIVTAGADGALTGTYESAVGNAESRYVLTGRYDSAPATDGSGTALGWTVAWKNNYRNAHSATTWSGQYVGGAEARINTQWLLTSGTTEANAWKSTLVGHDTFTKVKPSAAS

Chain of monomeric FcγRI (human) (P12314 16-292 limits assumed): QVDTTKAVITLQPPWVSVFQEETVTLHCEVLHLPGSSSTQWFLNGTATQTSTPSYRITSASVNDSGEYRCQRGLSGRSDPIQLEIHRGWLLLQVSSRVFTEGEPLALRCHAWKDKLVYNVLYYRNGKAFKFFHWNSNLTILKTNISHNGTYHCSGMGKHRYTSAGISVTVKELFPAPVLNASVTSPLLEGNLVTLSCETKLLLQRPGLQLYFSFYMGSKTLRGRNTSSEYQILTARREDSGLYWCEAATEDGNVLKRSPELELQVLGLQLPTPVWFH
Chain of monomeric FcγRIIIa-158F (human) (P08637 17-208 limits assumed): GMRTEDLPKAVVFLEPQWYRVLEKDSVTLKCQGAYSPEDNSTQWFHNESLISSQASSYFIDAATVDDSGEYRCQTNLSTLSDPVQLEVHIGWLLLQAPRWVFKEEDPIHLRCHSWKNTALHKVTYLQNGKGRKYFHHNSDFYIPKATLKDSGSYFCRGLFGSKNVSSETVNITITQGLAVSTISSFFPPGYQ
Chain of monomeric FcγRIIIa-158V (human) (P08637 17-208 F176V limits assumed): as the sequence (P08637 17-208 limits assumed) above, with F160V counted along it

Trastuzumab-LALA (antibody)
Kd [1]: 1360 nM | koff [1]: 0.033 s⁻¹ | kon [1]: 24300 M⁻¹ s⁻¹ | Kd [2]: 1190 nM | koff [2]: 0.0833 s⁻¹ | kon [2]: 70200 M⁻¹ s⁻¹ | Kd (monomeric FcγRI (human)): 136 nM | koff (monomeric FcγRI (human)): 0.0203 s⁻¹ | kon (monomeric FcγRI (human)): 149000 M⁻¹ s⁻¹ | Kd [3]: 390 µM | Kd [4]: 38 µM | Kd [5]: 22 µM | MFI [6]: 709
